According to US20230250154A1 (CYTONICS, published 2023):

B1: Variant A2M, bait region SEQ ID NO 106 (other)
chain: SVSGKPQYMVLVPSLLHTETTEKGCVLLSYLNETVTVSASLESVRGNRSLFTDLEAENDVLHCVAFAVPKSSSNEEVMFLTVQVKGPTQEFKKRTTVMVKNEDSLVFVQTDKSIYKPGQTVKFRVVSMDENFHPLNELIPLVYIQDPKGNRIAQWQSFQLEGGLKQFSFPLSSEPFQGSYKVVVQKKSGGRTEHPFTVEEFVLPKFEVQVTVPKIITILEEEMNVSVCGLYTYGKPVPGHVTVSICRKYSDASDCHGEDSQAFCEKFSGQLNSHGCFYQQVKTKVFQLKRKEYEMKLHTEAQIQEEGTVVELTGRQSSEITRTITKLSFVKVDSHFRQGIPFFGQVRLVDGKGVPIPNKVIFIRGNEANYYSNATTDEHGLVQFSINTTNVMGTSLTVRVNYKDRSPCYGYQWVSEEHEEAHHTAYLVFSPSKSFVHLEPMSHELPCGHTQTVQAHYILNGGTLLGLKKLSFYYLIMAKGGIVRTGTHGLLVKQEDMKGHFSISIPVKSDIAPVARLLIYAVLPTGDVIGDSAKYDVENCLANKVDLSFSPSQSLPASHAHLRVTAAPQSVCALRAVDQSVLLMKPDAELSASSVYNLLPEKDLTGFPGPLNDQDDEDCINRHNVYINGITYTPVSSTNEKDMYSFLEDMGLKAFTNSKIRKPKMCPQLEQYEMHGPEGLRVGESESEGGFAGLPNGKEEEGLGSIPENFFGVKLRKYFPETWIWDLVVVNSAGVAEVGVTVPDTITEWKAGAFCLSEDAGLGISSTASLRAFQPFFVELTMPYSVIRGEAFTLKATVLNYLPKCIRVSVQLEASPAFLAVPVEKEQAPHCICANGRQTVSWAVTPKSLGNVNFTVSAEALESQELCGTEVPSVPEHGRKDTVIKPLLVEPEGLEKETTFNSLLCPSGGEVSEELSLKLPPNVVEESARASVSVLGDILGSAMQNTQNLLQMPYGCGEQNMVLFAPNIYVLDYLNETQQLTPEIKSKAIGYLNTGYQRQLNYKHYDGSYSTFGERYGRNQGNTWLTAFVLKTFAQARAYIFIDEAHITQALIWLSQRQKDNGCFRSSGSLLNNAIKGGVEDEVTLSAYITIALLEIPLTVTHPVVRNALFCLESAWKTAQEGDHGSHVYTKALLAYAFALAGNQDKRKEVLKSLNEEAVKKDNSVHWERPQKPKAPVGHFYEPQAPSAEVEMTSYVLLAYLTAQPAPTSEDLTSATNIVKWITKQQNAQGGFSSTQDTVVALHALSKYGAATFTRTGKAAQVTIQSSGTFSSKFQVDNNNRLLLQQVSLPELPGEYSMKVTGEGCVYLQTSLKYNILPEKEEFPFALGVQTLPQTCDEPKAHTSFQISLSVSYTGSRSASNMAIVDVKMVSGFIPLKPTVKMLERSNHVSRTEVSSNHVLIYLDKVSNQTLSLFFTVLQDVPVRDLKPAIVKVYDYYETDEFAIAEYNAPCSKDLGNADYKDDDDKGASHHHHHH
B2: Variant A2M, bait region SEQ ID NO 105 (other)
chain: SVSGKPQYMVLVPSLLHTETTEKGCVLLSYLNETVTVSASLESVRGNRSLFTDLEAENDVLHCVAFAVPKSSSNEEVMFLTVQVKGPTQEFKKRTTVMVKNEDSLVFVQTDKSIYKPGQTVKFRVVSMDENFHPLNELIPLVYIQDPKGNRIAQWQSFQLEGGLKQFSFPLSSEPFQGSYKVVVQKKSGGRTEHPFTVEEFVLPKFEVQVTVPKIITILEEEMNVSVCGLYTYGKPVPGHVTVSICRKYSDASDCHGEDSQAFCEKFSGQLNSHGCFYQQVKTKVFQLKRKEYEMKLHTEAQIQEEGTVVELTGRQSSEITRTITKLSFVKVDSHFRQGIPFFGQVRLVDGKGVPIPNKVIFIRGNEANYYSNATTDEHGLVQFSINTTNVMGTSLTVRVNYKDRSPCYGYQWVSEEHEEAHHTAYLVFSPSKSFVHLEPMSHELPCGHTQTVQAHYILNGGTLLGLKKLSFYYLIMAKGGIVRTGTHGLLVKQEDMKGHFSISIPVKSDIAPVARLLIYAVLPTGDVIGDSAKYDVENCLANKVDLSFSPSQSLPASHAHLRVTAAPQSVCALRAVDQSVLLMKPDAELSASSVYNLLPEKDLTGFPGPLNDQDDEDCINRHNVYINGITYTPVSSTNEKDMYSFLEDMGLKAFTNSKIRKPKMCPQLEQYEMHGPEGLRVGGFKEGVEGEIEEGGGFKEGVEGKLRKYFPETWIWDLVVVNSAGVAEVGVTVPDTITEWKAGAFCLSEDAGLGISSTASLRAFQPFFVELTMPYSVIRGEAFTLKATVLNYLPKCIRVSVQLEASPAFLAVPVEKEQAPHCICANGRQTVSWAVTPKSLGNVNFTVSAEALESQELCGTEVPSVPEHGRKDTVIKPLLVEPEGLEKETTFNSLLCPSGGEVSEELSLKLPPNVVEESARASVSVLGDILGSAMQNTQNLLQMPYGCGEQNMVLFAPNIYVLDYLNETQQLTPEIKSKAIGYLNTGYQRQLNYKHYDGSYSTFGERYGRNQGNTWLTAFVLKTFAQARAYIFIDEAHITQALIWLSQRQKDNGCFRSSGSLLNNAIKGGVEDEVTLSAYITIALLEIPLTVTHPVVRNALFCLESAWKTAQEGDHGSHVYTKALLAYAFALAGNQDKRKEVLKSLNEEAVKKDNSVHWERPQKPKAPVGHFYEPQAPSAEVEMTSYVLLAYLTAQPAPTSEDLTSATNIVKWITKQQNAQGGFSSTQDTVVALHALSKYGAATFTRTGKAAQVTIQSSGTFSSKFQVDNNNRLLLQQVSLPELPGEYSMKVTGEGCVYLQTSLKYNILPEKEEFPFALGVQTLPQTCDEPKAHTSFQISLSVSYTGSRSASNMAIVDVKMVSGFIPLKPTVKMLERSNHVSRTEVSSNHVLIYLDKVSNQTLSLFFTVLQDVPVRDLKPAIVKVYDYYETDEFAIAEYNAPCSKDLGNADYKDDDDKGASHHHHHH
B3: Variant A2M, bait region SEQ ID NO 107 (other)
chain: SVSGKPQYMVLVPSLLHTETTEKGCVLLSYLNETVTVSASLESVRGNRSLFTDLEAENDVLHCVAFAVPKSSSNEEVMFLTVQVKGPTQEFKKRTTVMVKNEDSLVFVQTDKSIYKPGQTVKFRVVSMDENFHPLNELIPLVYIQDPKGNRIAQWQSFQLEGGLKQFSFPLSSEPFQGSYKVVVQKKSGGRTEHPFTVEEFVLPKFEVQVTVPKIITILEEEMNVSVCGLYTYGKPVPGHVTVSICRKYSDASDCHGEDSQAFCEKFSGQLNSHGCFYQQVKTKVFQLKRKEYEMKLHTEAQIQEEGTVVELTGRQSSEITRTITKLSFVKVDSHFRQGIPFFGQVRLVDGKGVPIPNKVIFIRGNEANYYSNATTDEHGLVQFSINTTNVMGTSLTVRVNYKDRSPCYGYQWVSEEHEEAHHTAYLVFSPSKSFVHLEPMSHELPCGHTQTVQAHYILNGGTLLGLKKLSFYYLIMAKGGIVRTGTHGLLVKQEDMKGHFSISIPVKSDIAPVARLLIYAVLPTGDVIGDSAKYDVENCLANKVDLSFSPSQSLPASHAHLRVTAAPQSVCALRAVDQSVLLMKPDAELSASSVYNLLPEKDLTGFPGPLNDQDDEDCINRHNVYINGITYTPVSSTNEKDMYSFLEDMGLKAFTNSKIRKPKMCPQLEQYEMHGPEGLRVGIPENFFGVTSEDLVVQEAIPMSIPKLRKYFPETWIWDLVVVNSAGVAEVGVTVPDTITEWKAGAFCLSEDAGLGISSTASLRAFQPFFVELTMPYSVIRGEAFTLKATVLNYLPKCIRVSVQLEASPAFLAVPVEKEQAPHCICANGRQTVSWAVTPKSLGNVNFTVSAEALESQELCGTEVPSVPEHGRKDTVIKPLLVEPEGLEKETTFNSLLCPSGGEVSEELSLKLPPNVVEESARASVSVLGDILGSAMQNTQNLLQMPYGCGEQNMVLFAPNIYVLDYLNETQQLTPEIKSKAIGYLNTGYQRQLNYKHYDGSYSTFGERYGRNQGNTWLTAFVLKTFAQARAYIFIDEAHITQALIWLSQRQKDNGCFRSSGSLLNNAIKGGVEDEVTLSAYITIALLEIPLTVTHPVVRNALFCLESAWKTAQEGDHGSHVYTKALLAYAFALAGNQDKRKEVLKSLNEEAVKKDNSVHWERPQKPKAPVGHFYEPQAPSAEVEMTSYVLLAYLTAQPAPTSEDLTSATNIVKWITKQQNAQGGFSSTQDTVVALHALSKYGAATFTRTGKAAQVTIQSSGTFSSKFQVDNNNRLLLQQVSLPELPGEYSMKVTGEGCVYLQTSLKYNILPEKEEFPFALGVQTLPQTCDEPKAHTSFQISLSVSYTGSRSASNMAIVDVKMVSGFIPLKPTVKMLERSNHVSRTEVSSNHVLIYLDKVSNQTLSLFFTVLQDVPVRDLKPAIVKVYDYYETDEFAIAEYNAPCSKDLGNADYKDDDDKGASHHHHHH

Each binder was assayed against T1, ADAMTS4 (human, UniProt O75173 213-685, limits assumed) (assay: cell-based or functional assay).
T1 sequence (looked up): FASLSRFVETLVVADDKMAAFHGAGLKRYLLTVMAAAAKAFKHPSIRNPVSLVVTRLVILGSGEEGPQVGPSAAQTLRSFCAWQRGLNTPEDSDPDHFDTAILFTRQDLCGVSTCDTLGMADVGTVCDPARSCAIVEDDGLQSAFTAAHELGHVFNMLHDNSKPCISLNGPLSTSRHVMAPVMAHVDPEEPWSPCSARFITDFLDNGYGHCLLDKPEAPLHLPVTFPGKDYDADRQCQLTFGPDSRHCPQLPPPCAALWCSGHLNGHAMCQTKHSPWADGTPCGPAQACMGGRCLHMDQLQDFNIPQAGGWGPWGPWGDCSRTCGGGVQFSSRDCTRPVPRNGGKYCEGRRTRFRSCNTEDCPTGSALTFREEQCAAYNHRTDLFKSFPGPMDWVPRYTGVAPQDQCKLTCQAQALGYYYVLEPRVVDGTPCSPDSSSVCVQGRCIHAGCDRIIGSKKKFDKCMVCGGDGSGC

Row | Binder | Protease Inhibition (% of WT)
1 | B1 | 104 % of WT
2 | B2 | 94 % of WT
3 | B3 | 92 % of WT

Each binder was assayed against T2, ADAMTS5 (human, UniProt Q9UNA0 262-622, limits assumed) (assay: cell-based or functional assay).
T2 sequence (looked up): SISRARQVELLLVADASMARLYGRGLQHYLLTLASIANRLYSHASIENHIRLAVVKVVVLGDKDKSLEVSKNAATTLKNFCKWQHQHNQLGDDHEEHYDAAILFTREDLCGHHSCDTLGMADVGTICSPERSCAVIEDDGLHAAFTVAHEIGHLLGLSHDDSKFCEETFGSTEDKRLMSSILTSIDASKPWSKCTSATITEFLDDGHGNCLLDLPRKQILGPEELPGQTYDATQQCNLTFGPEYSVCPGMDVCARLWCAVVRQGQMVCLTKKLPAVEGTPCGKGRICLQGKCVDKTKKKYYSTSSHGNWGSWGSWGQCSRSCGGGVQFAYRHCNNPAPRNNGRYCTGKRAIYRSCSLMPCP

Row | Binder | Protease Inhibition (% of WT)
4 | B1 | 93 % of WT
5 | B2 | 115 % of WT
6 | B3 | 108 % of WT

These binders were tested against MMP13 (human, UniProt P45452 104-471, limits assumed) (assay: cell-based or functional assay).

Row | Binder | Protease Inhibition (% of WT)
7 | B1 | 16 % of WT
8 | B2 | 164 % of WT
9 | B3 | 136 % of WT
